Assay results reported in patent US20220089695A1 (NEW YORK UNIVERSITY, published 2022).

Target: T1, S1-69/70 DelFc (SARS-CoV-2, UniProt P0DTC2 14-685)
T1 construct: domain: S1
Assay: Fc-tagged protein on receptor-expressing HEK293T cells (FIG. 13A)

Binder	binding result
Dendritic cell-specific intercellular adhesion molecule-3-grabbing nonintegrin expressed on cells (receptor, whole, on cells; also called DC-SIGN; CD209) MSDSKEPRLQQLGLLEEEQLRGLGFRQTRGYKSLAGCLGHGPLVLQLLSFTLLAGLLVQVSKVPSSISQEQSRQDAIYQNLTQLKAAVGELSEKSKLQEIYQELTQLKAAVGELPEKSKLQEIYQELTRLKAAVGELPEKSKLQEIYQELTWLKAAVGELPEKSKMQEIYQELTRLKAAVGELPEKSKQQEIYQELTRLKAAVGELPEKSKQQEIYQELTRLKAAVGELPEKSKQQEIYQELTQLKAAVERLCHPCPWEWTFFQGNCYFMSNSQRNWHDSITACKEVGAQLVVIKSAEEQNFLQLQSSRSNRFTWMGLSDLNQEGTWQWVDGSPLLPSFKQYWNRGEPNNVGEEDCAEFSGNGWNDDKCNLAKFWICKKSAASCSRDEEQFLSPAPATPNPPPA	binds
Liver/lymph node-specific intercellular adhesion molecule-3-grabbing integrin expressed on cells (receptor, whole, on cells; also called L-SIGN; CLEC4M) MSDSKEPRVQQLGLLEEDPTTSGIRLFPRDFQFQQIHGHKSSTGCLGHGALVLQLLSFMLLAGVLVAILVQVSKVPSSLSQEQSEQDAIYQNLTQLKAAVGELSEKSKLQEIYQELTQLKAAVGELPEKSKLQEIYQELTRLKAAVGELPEKSKLQEIYQELTRLKAAVGELPEKSKLQEIYQELTRLKAAVGELPEKSKLQEIYQELTELKAAVGELPEKSKLQEIYQELTQLKAAVGELPDQSKQQQIYQELTDLKTAFERLCRHCPKDWTFFQGNCYFMSNSQRNWHDSVTACQEVRAQLVVIKTAEEQNFLQLQTSRSNRFSWMGLSDLNQEGTWQWVDGSPLSPSFQRYWNSGEPNNSGNEDCAEFSGSGWNDNRCDVDNYWICKKPAACFRDE	binds
Liver and lymph node sinusoidal endothelial cell C-type lectin expressed on cells (receptor, whole, on cells; also called LSECtin; CLEC4G) MDTTRYSKWGGSSEEVPGGPWGRWVHWSRRPLFLALAVLVTTVLWAVILSILLSKASTERAALLDGHDLLRTNASKQTAALGALKEEVGDCHSCCSGTQAQLQTTRAELGEAQAKLMEQESALRELRERVTQGLAEAGRGREDVRTELFRALEAVRLQNNSCEPCPTSWLSFEGSCYFFSVPKTTWAAAQDHCADASAHLVIVGGLDEQGFLTRNTRGRGYWLGLRAVRHLGKVQGYQWVDGVSLSFSHWNQGEPNDAWGRENCVMMLHTGLWNDAPCDSEKDGWICEKRHNC	binds
Asialoglycoprotein Receptor 1 expressed on cells (receptor, whole, on cells; also called ASGR1) MTKEYQDLQHLDNEESDHHQLRKGPPPPQPLLQRLCSGPRLLLLSLGLSLLLLVVVCVIGSQNSQLQEELRGLRETFSNFTASTEAQVKGLSTQGGNVGRKMKSLESQLEKQQKDLSEDHSSLLLHVKQFVSDLRSLSCQMAALQGNGSERTCCPVNWVEHERSCYWFSRSGKAWADADNYCRLEDAHLVVVTSWEEQKFVQHHIGPVNTWMGLHDQNGPWKWVDGTDYETGFKNWRPEQPDDWYGHGLGGGEDCAHFTDDGRWNDDVCQRPYRWVCETELDKASQEPPLL	binds
C-type lectin domain family 10 member A expressed on cells (receptor, whole, on cells; also called CLEC10A) MTRTYENFQYLENKVKVQGFKNGPLPLQSLLQRLCSGPCHLLLSLGLGLLLLVIICVVGFQNSKFQRDLVTLRTDFSNFTSNTVAEIQALTSQGSSLEETIASLKAEVEGFKQERQAGVSELQEHTTQKAHLGHCPHCPSVCVPVHSEMLLRVQQLVQDLKKLTCQVATLNNNASTEGTCCPVNWVEHQDSCYWFSHSGMSWAEAEKYCQLKNAHLVVINSREEQNFVQKYLGSAYTWMGLSDPEGAWKWVDGTDYATGFQNWKPGQPDDWQGHGLGGGEDCAHFHPDGRWNDDVCQRPYHWVCEAGLGQTSQESH	binds
